Changes are numbered by the printed parent chain.

These results are taken from US20240209093A1 (I MAB BIOPHARMA, published 2024).

T1: His-tagged human TIGIT-ECD protein (human, UniProt Q495A1 22-141)
T1 construct: extracellular domain; also called hTIGIT-his
T1 sequence (looked up): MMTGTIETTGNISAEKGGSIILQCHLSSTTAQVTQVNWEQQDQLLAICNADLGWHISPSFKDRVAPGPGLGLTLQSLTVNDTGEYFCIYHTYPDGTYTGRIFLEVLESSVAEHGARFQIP

B1: ALP-Tan-3p-112 (VHH)
VHH: QVQLVESGGGLVQPGGSLRLSCAASGSIFSSGTNFSDSKIDWYRQAPGKQRDWIAGIFSTGSTIYEDSVKGRFAISRDNAKNMGYLQMNSLKPEDTAVYYCRVIGRGILAWGQGTQVTVSS
B2: ASP-3P-46 (VHH)
VHH: QVQLVESGGGLVQPGGSLRLSCAASARSINGMEWYRQAPGERRELVAGITAGGSAYYTDTVKGRFTISRDNAENTGYLQMNSLSPDDTAVYYCRRQYGPNWYWGQGTQVTVSS
notes: also called ASP-30-46
B3: ALP-Tan-3p-93 (VHH)
VHH: QVQLVESVGGLVQPGDSLRLSCLASGRTFTFRHYVMGWFRQAPGKEREFVAAISWSGSGSYYADSVKGRFTISRDNSKNMVFLQMNGLKPEDTAVYYCAADMTTRMSQASREYDYWGQGTQVTVSS
B4: TIGIT antibody (antibody, V domains shown)
VH: EVKLVESGGGLVQPGGSLRLSCAASGFTFSDYYMYWVRQAPGKRLEWVASITKGGGSTYYPDTLKGRFTISRDNAKNSLYLQMNRLRAEDTAVYYCARQSSYDFVMDYWGQGTTVTVSS
VL: DIVMTQSPSSLSASVGDRVTITCKASQDVDTAVAWYQQKPGKAPKLLIYWASARHTGVPSRFSGSGSGTDFTFTISSLQPEDIATYYCQQYSNYPLTFGQGTKLEIK
notes: Only variable domains are tied to the parental antibody; also called TIGIT Ab; parental TIGIT antibody
B5: 112-VHH5-PTM (VHH)
VHH: B1 VHH with Q1E, N34Q, I54V, M83S, G84L, K92R, P93A, Q116L
notes: Humanized
B6: 112-VHH3-PTM (VHH)
VHH: EVQLVESGGGLVQPGGSLRLSCAASGSIFSSGTQFSDSKIDWYRQAPGKQREWVSGIFSTGSTIYEDSVKGRFTISRDNAKNSLYLQMNSLRAEDTAVYYCRVIGRGILAWGQGTLVTVSS
notes: Humanized
B7: ALP-Tan-3p-112 (chimeric) (antibody, V domains shown, not shown: a dimerising Fc or GST; small tags and cut ends)
VH: B1 VHH
notes: Called chimeric
B8: 112-VHH7-PTM (VHH)
VHH: B6 VHH with V54I, S55A, T74A, S83M
notes: Humanized
B9: 93-VH-2 (VHH)
VHH: EVQLVESGGGLVQPGGSLRLSCAASGFTFTFRHYVMGWVRQAPGKEREWVSAISWSGSGSYYADSVKGRFTISRDNSKNTVYLQMNSLRAEDTAVYYCAADMTTRMSQASREYDYWGQGTLVTVSS
notes: Humanized
B10: 93-VH-3 (VHH)
VHH: B9 VHH with V39F, E46G, R47L, W49F, S51A, V81L, A100K
notes: Humanized
B11: 93-VH-4 (VHH)
VHH: B9 VHH with V39F, E46G, R47L, W49F, S51A
notes: Humanized
B12: 93-VH-9 (VHH)
VHH: B9 VHH with F27R, V39F, E46G, R47L, W49F, S51A, V81L
notes: Humanized
B13: 93-VH-7 (VHH)
VHH: B9 VHH with V39F, E46G, R47L, W49F, S51A, V81L
notes: Humanized
B14: 93-VH-5 (VHH)
VHH: B9 VHH with V39F, W49F, S51A, V81L, A100K
notes: Humanized
B15: ALP-Tan-3p-93 (chimeric) (antibody, V domains shown, not shown: a dimerising Fc or GST; small tags and cut ends)
VH: B3 VHH
notes: Called chimeric; also called ALP-Tan-3p-93 chimeric antibody
B16: 93-VH-8 (VHH)
VHH: B9 VHH with F27R, V39F, E46G, R47L, W49F, S51A
notes: Humanized
B17: 34C5 (antibody, V domains shown)
VH: QVQLVQSGAEVKKPGSSVKVSCKASGYTFSSYYMHWVRQAPGQGLEWMGEINPNNARINFNEKFKTRVTLTVDKSTSTAYMELSSLRSEDTAVYYCTRGYYRYGAWFGYWGQGTLVTVSS
VL: DIQMTQSPSSLSASVGDRVTITCRASQDISDYLNWYQQKPGKAPKLLIYYISRLHSGVPSRFSGSGSGTDYTLTISSLQPEDFATYYCQQGHTLPWTFGGGTKVEIK
notes: also called anti-CD47 antibody 34C5; parental CD47 antibody 34C5
B18: 13H3 (antibody, V domains shown)
VH: EVQLVESGGGLVKPGGSLRLSCAASGLTFERAWMNWVRQAPGKGLEWVGRIKRKTDGETTDYAAPVKGRFSISRDDSKNTLYLQMNSLKTEDTAVYYCAGSNRAFDIWGQGTMVTVSS
VL: DIVMTQSPDSLAVSLGERATINCKSSQSVLYAGNNRNYLAWYQQKPGQPPKLLINQASTRASGVPDRFSGSGSGTEFTLIISSLQAEDVAIYYCQQYYTPPLAFGGGTKLEIK
notes: also called anti-CD47 antibody 13H3; parental CD47 antibody 13H3

T2 sequence (Q9NZQ7 19-238 limits assumed): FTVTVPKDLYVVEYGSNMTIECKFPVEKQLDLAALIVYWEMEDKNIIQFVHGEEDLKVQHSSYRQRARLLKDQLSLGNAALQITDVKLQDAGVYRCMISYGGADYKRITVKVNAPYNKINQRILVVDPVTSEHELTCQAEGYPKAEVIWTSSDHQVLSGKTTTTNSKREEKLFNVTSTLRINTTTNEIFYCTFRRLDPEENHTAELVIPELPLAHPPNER
T3 sequence (Q08722 19-139 limits assumed): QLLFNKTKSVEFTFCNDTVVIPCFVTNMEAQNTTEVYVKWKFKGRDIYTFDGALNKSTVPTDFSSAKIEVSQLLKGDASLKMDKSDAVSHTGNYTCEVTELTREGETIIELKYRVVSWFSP

One test concerns the target T2, human PD-L1-his (human, UniProt Q9NZQ7 19-238).
T2 construct: also called hPD-L1-his; human His-PD-L1
The test is described as follows: SPR, Biacore T200. For orientation: SPR reads the build-up and loss of mass on a sensor chip optically.
As a reminder, the Kd is the concentration at which binding is half-saturated. Low readings indicate higher affinity, high ones lower affinity. For orientation: koff means the first-order rate constant of dissociation. A low value points to a long-lived complex. The kon is the second-order rate constant of association. Low values mean slow association, high ones fast association. In turn, B1 gave a Kd of 0.479 nM, a koff of 0.000235 s⁻¹ and a kon of 490000 M⁻¹ s⁻¹.

B2 showed a Kd of 1.81 nM, a koff of 0.00128 s⁻¹ and a kon of 710000 M⁻¹ s⁻¹.

On to B3, for which binding was put at a Kd of 0.459 nM, the koff turned out to be 7.8e-05 s⁻¹ and the kon was 154000 M⁻¹ s⁻¹.

The target in another test is T1, His-tagged human TIGIT-ECD protein. The test can be described thus: ELISA on His-tagged human TIGIT. In general terms: An ELISA detects its analyte on a solid surface through an enzyme-linked reagent.
For orientation: EC50 (read off the curve) means the concentration needed to bring the measured effect to its halfway point. For the molecule B4, the “EC50 (read off the curve)” value is approximately 0.2 nM.

For a further test, the target named is T2, human PD-L1-his. The test is described as follows: SPR, Biacore, full kinetics, antigen 100-1.5625 nM.
In turn, B5 yielded a dissociation constant (Kd) of 0.92 nM, a koff of 0.00149 s⁻¹ and a kon of 1.62e+06 M⁻¹ s⁻¹.

B6 had a Kd of 2.4 nM, a koff of 0.00498 s⁻¹ and a kon of 2.07e+06 M⁻¹ s⁻¹.

The molecule B7 yielded a Kd of 0.264 nM, a koff of 0.000566 s⁻¹ and a kon of 2.14e+06 M⁻¹ s⁻¹.

In turn, B8 came in with a Kd of 2.32 nM, a koff of 0.00393 s⁻¹ and a kon of 1.69e+06 M⁻¹ s⁻¹.

In the case of B9, binding was characterised by a dissociation constant (Kd) of 26.3 nM, the off-rate (koff) was found to be 0.00162 s⁻¹ and the kon came to 61500 M⁻¹ s⁻¹.

B10 showed a Kd of 2.36 nM, a koff of 0.00115 s⁻¹ and a kon of 486000 M⁻¹ s⁻¹.

Molecule B11 yielded a Kd of 1.82 nM, a koff of 0.000147 s⁻¹ and a kon of 80500 M⁻¹ s⁻¹.

The molecule B12 came in with a Kd of 2.2 nM, a koff of 0.00031 s⁻¹ and a kon of 140000 M⁻¹ s⁻¹.

As for B13, the affinity, expressed as Kd, was 3.87 nM; the koff came out at 0.000339 s⁻¹; the kon was 87600 M⁻¹ s⁻¹.

Consider B14, for which the Kd was 2.77 nM, the koff is 0.00125 s⁻¹ and the kon came to 452000 M⁻¹ s⁻¹.

The molecule B15 showed a Kd of 0.559 nM, a koff of 0.000107 s⁻¹ and a kon of 192000 M⁻¹ s⁻¹.

Turning to B16, the Kd amounted to 1.8 nM, the koff is 0.000239 s⁻¹ and the kon amounted to 133000 M⁻¹ s⁻¹.

The target of a further test is T1, His-tagged human TIGIT-ECD protein. The test is described as follows: SPR, Biacore T200, antibody captured on protein A chip, hTIGIT-his 0.78-12.5 nM as analyte. The source says: The antibodies were captured by Protein A chip. […] The association phase was 180 s and the dissociation phase was 1200 s.
As for B4, the Kd amounted to 0.144 nM, the koff was found to be 0.000172 s⁻¹ and the kon amounted to 1.19e+06 M⁻¹ s⁻¹.

The next test concerns the target T3, Tag1-CD47 (UniProt Q08722 19-139).
T3 construct: Bought kit reagent
The test is described as follows: HTRF CD47/SIRPα binding assay (Cisbio): blocking of Tag2-SIRPa binding to Tag1-CD47; axis numbers -3 to 3 read as log10 of nM. The source says: Fluorescence data were read on a PerkinElmer Envision plate reader using laser as light source.
Background: TR-FRET usually uses a lanthanide donor and a delayed reading to cut background.
Take B17: the “IC50 (read off the curve)” value was approximately 0.7 nM.

As to B18, the “IC50 (read off the curve)” value is approximately 1 nM.
